This note sets out measurements from EP1141254B1.

What all share (assay): cell-based or functional assay
The target of experiment [1] is 980601 (BX): purified preparation of Danisco's new bacterial xylanase expressed in E. coli (Bacillus subtilis) (UniProt P18429).
The target of experiment [2] is 980903 (XM1): purified mutant of Bacillus sub. wild type xylanase expressed in E. coli.
For experiment [3], the target named is 980603 (Röhm): purified preparation of Frimond's Belase xylanase (identical to Röhm's) (Bacillus subtilis).

Chain of endogenous endo-β-1,4-xylanase inhibitor from wheat flour (main, form in doubt): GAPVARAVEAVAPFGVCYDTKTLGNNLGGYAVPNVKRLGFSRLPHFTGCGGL
Chain of endogenous endo-β-1,4-xylanase inhibitor from wheat flour (main, form in doubt): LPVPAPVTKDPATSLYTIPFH

With “endogenous endo-β-1,4-xylanase inhibitor from wheat flour”, in experiment [1], the Inhibition, % (inhibitor extracted from flour 98002) was determined as 67%; the Inhibition, % (inhibitor extracted from flour 98026) is 75%; the OD 590 in the inhibitor assay with inhibitor extract from flour 98026 (without inhibitor: 0.675) turned out to be 0.165 OD 590; the Residual activity, % (inhibitor extract from flour 98026) was 24.4%. In addition, in experiment [1], the Rest act., % (average of flours 98002 and 98026) amounted to 29%; the Rest act., % (inhibitor extracted from flour 98002) worked out at 33%; the Rest act., % (inhibitor extracted from flour 98026) stood at 25%; the Vmax from the Lineweaver-Burk plot of xylanase 980601 with and without inhibitor (relative OD 590) (relative OD 590) turned out to be 1.19. In experiment [2], the residual activity of XM1 after incubation with flour extract, relative to that of XM2 came to 2.5 fold. In experiment [3], the Inhibition, % (inhibitor extracted from flour 98002) was found to be 60.8%; the Inhibition, % (inhibitor extracted from flour 98026) came out at 61.3%; the Rest act., % (average of flours 98002 and 98026) worked out at 39%; the Rest act., % (inhibitor extracted from flour 98002) was found to be 39.2%. Further, in experiment [3], the Rest act., % (inhibitor extracted from flour 98026) stood at 38.7%.
